B1: Cryptochrome-1 (Arabidopsis thaliana (Mouse-ear cress)), Q43125 (parent)
chain: MSGSVSGCGSGGCSIVWFRRDLRVEDNPALAAAVRAGPVIALFVWAPEEEGHYHPGRVSRWWLKNSLAQLDSSLRSLGTCLITKRSTDSVASLLDVVKSTGASQIFFNHLYDPLSLVRDHRAKDVLTAQGIAVRSFNADLLYEPWEVTDELGRPFSMFAAFWERCLSMPYDPESPLLPPKKIISGDVSKCVADPLVFEDDSEKGSNALLARAWSPGWSNGDKALTTFINGPLLEYSKNRRKADSATTSFLSPHLHFGEVSVRKVFHLVRIKQVAWANEGNEAGEESVNLFLKSIGLREYSRYISFNHPYSHERPLLGHLKFFPWAVDENYFKAWRQGRTGYPLVDAGMRELWATGWLHDRIRVVVSSFFVKVLQLPWRWGMKYFWDTLLDADLESDALGWQYITGTLPDSREFDRIDNPQFEGYKFDPNGEYVRRWLPELSRLPTDWIHHPWNAPESVLQAAGIELGSNYPLPIVGLDEAKARLHEALSQMWQLEAASRAAIENGSEEGLGDSAEVEEAPIEFPRDITMEETEPTRLNPNRRYEDQMVPSITSSLIRPEEDEESSLNLRNSVGDSRAEVPRNMVNTNQAQQRRAEPASNQVTAMIPEFNIRIVAESTEDSTAESSSSGRRERSGGIVPEWSPGYSEQFPSEENGIGGGSTTSSYLQNHHEILNWRRLSQTG
partner: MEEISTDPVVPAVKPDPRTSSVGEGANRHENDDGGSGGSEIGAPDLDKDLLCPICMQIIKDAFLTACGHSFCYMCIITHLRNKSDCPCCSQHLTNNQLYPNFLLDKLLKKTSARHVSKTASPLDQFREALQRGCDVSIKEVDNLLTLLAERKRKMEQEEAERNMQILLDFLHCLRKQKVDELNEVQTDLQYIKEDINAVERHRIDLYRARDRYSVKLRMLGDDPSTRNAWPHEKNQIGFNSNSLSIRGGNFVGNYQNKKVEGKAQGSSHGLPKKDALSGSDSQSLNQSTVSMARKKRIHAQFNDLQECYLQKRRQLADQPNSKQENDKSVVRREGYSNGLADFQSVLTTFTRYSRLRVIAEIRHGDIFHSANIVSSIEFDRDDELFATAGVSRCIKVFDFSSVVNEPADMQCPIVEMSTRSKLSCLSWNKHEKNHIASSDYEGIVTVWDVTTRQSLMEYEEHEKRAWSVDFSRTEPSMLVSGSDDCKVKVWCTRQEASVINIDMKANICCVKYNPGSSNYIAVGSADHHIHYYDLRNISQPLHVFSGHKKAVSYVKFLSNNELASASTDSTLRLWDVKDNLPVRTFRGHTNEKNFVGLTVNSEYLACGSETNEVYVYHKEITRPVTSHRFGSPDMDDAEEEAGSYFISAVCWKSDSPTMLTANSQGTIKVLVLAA
B2: E3 ubiquitin-protein ligase COP1 (Arabidopsis thaliana (Mouse-ear cress)), P43254 (parent)
chain: B1 partner

Variants of: B1
Conditions: with cop1_arath COP1, P43254

| Variant | effect of a mutation on the interaction |
| --- | --- |
| E515K | decreasing interaction |
| R576K | decreasing interaction |
| E559K | disrupting interaction |

Further lines, results first:

| effect of a mutation on the interaction | Variant |
| --- | --- |
| decreasing interaction | R611K |
| decreasing interaction | E531K |
| decreasing interaction | P549L |
| decreasing interaction | R581K |

Variants of: B2
Conditions: with cry1_arath CRY1, Q43125

| effect of a mutation on the interaction | Variant |
| --- | --- |
| decreasing interaction | K422E |
| decreasing interaction | K550E |
| decreasing interaction | R465E |
| decreasing interaction | W467A |
| decreasing interaction | E592R |
| decreasing interaction | G524E |
